Here are results for six variants from FireProtDB (doi:10.1021/bi9815243).

B1: Guanyl-specific ribonuclease Sa, P05798 (parent)
chain: DVSGTVCLSALPPEATDTLNLIASDGPFPYSQDGVVFQNRESVLPTQSYGYYHEYTVITPGARTRGTRRIITGEATQEDYYTGDHYATFSLIDQTC
B2: Guanyl-specific ribonuclease T1, P00651 (parent)
chain: MMYSKLLTLTTLLLPTALALPSLVERACDYTCGSNCYSSSDVSTAQAAGYQLHEDGETVGSNSYPHKYNNYEGFDFSVSSPYYEWPILSSGDVYSGGSPGADRVVFNENNQLAGVITHTGASGNNFVECT

In one data set the parent is B1. The conditions noted are these: Kitasatospora aureofaciens; pH 2; Thermal; CD; MOPS 30 mM; transition: 2; reversible: Yes; structure 1RGG; whole UniProt chain shown.
For the variant N39D, the Tm came to 23.3 °C; the “change of melting temperature, mutant - wild type (higher = more stable)” value (from here on “change of melting temperature, mutant”) was -4.7 °C; the “unfolding enthalpy (van 't Hoff)” value stood at 50.3 kcal/mol.

The data set is the same for the next values; noted with them: Kitasatospora aureofaciens; pH 7; 48.4 °C; Thermal; CD; MOPS 30 mM; reversible: yes (>95%); structure 1RGG; whole UniProt chain shown.
N39D: the “ddG of mutation (higher = less stable)” value was found to be 1.5 kcal/mol.
For the variant N39S, the “ddG of mutation (higher = less stable)” value is 2.3 kcal/mol.
On to N39A, for which the “ddG of mutation (higher = less stable)” value came to 2.2 kcal/mol.

Still in this data set, the particulars now being: Kitasatospora aureofaciens; pH 7; Thermal; CD; MOPS 30 mM; reversible: yes (>95%); structure 1RGG; whole UniProt chain shown.
As for N39D, the Tm is 43.2 °C; the “change of melting temperature, mutant” value was -5.2 °C; the “unfolding enthalpy (van 't Hoff)” value was 83.5 kcal/mol.
For N39S, the Tm was found to be 40.4 °C; the “change of melting temperature, mutant” value is -8 °C; the “unfolding enthalpy (van 't Hoff)” value is 73.5 kcal/mol.
Taken in the same sequence, the figures for N39A were 40.8 °C, -7.6 °C and 70.4 kcal/mol.

The data set is the same for the next values; noted with them: Kitasatospora aureofaciens; pH 7; Thermal; CD; MOPS 30 mM; transition: 2; reversible: Yes; structure 1RGG; whole UniProt chain shown.
On to N39D, for which the Tm was determined as 43.2 °C; the “change of melting temperature, mutant” value was -5.2 °C; the “unfolding enthalpy (van 't Hoff)” value was 83.5 kcal/mol.
For N39S, the Tm was 40.4 °C; the “change of melting temperature, mutant” value is -8 °C; the “unfolding enthalpy (van 't Hoff)” value came out at 73.5 kcal/mol.
Consider N39A, for which the Tm was 40.8 °C; the “change of melting temperature, mutant” value was -7.6 °C; the “unfolding enthalpy (van 't Hoff)” value amounted to 70.4 kcal/mol.

Variants of B2 are the subject of another data set. The conditions noted are these: Aspergillus oryzae (strain ATCC 42149 / RIB 40); pH 7; 25 °C; Urea; CD; MOPS 30 mM; reversible: yes (>95%); structure 1RN1; whole UniProt chain shown.
As for N70S, the “ddG of mutation (higher = less stable)” value is 1.9 kcal/mol, the denaturant m value came out at 1.22 kcal/mol/M, the “denaturant midpoint (higher = more stable)” value (“denaturant midpoint” below) came out at 3.6 M and the unfolding free energy worked out at 4.39 kcal/mol.
In the case of N70D, the “ddG of mutation (higher = less stable)” value was 2 kcal/mol, the denaturant m value was 1.25 kcal/mol/M, the “denaturant midpoint” value amounted to 3.54 M and the unfolding free energy stood at 4.43 kcal/mol.
Taken in the same sequence, the figures for N70A were 2 kcal/mol, 1.17 kcal/mol/M, 3.51 M and 4.12 kcal/mol.

The same data set, now with this note: Aspergillus oryzae (strain ATCC 42149 / RIB 40); pH 7; 25 °C; Urea; Fluorescence; MOPS 30 mM; transition: 2; reversible: Yes; structure 1RN1; whole UniProt chain shown.
N70S: the “ddG of mutation (higher = less stable)” value was found to be 1.9 kcal/mol, the denaturant m value is 1.22 kcal/mol/M, the “denaturant midpoint” value came out at 3.6 M and the unfolding free energy came to 4.39 kcal/mol.
Taken in the same sequence, the figures for N70D were 2 kcal/mol, 1.25 kcal/mol/M, 3.54 M and 4.43 kcal/mol.
On the same counts, the results for N70A are 2 kcal/mol, 1.17 kcal/mol/M, 3.51 M and 4.12 kcal/mol.

The same data set, now with this note: Aspergillus oryzae (strain ATCC 42149 / RIB 40); pH 7; 50.8 °C; Thermal; CD; MOPS 30 mM; reversible: yes (>95%); structure 1RN1; whole UniProt chain shown.
N70S: the “ddG of mutation (higher = less stable)” value was 1.5 kcal/mol.
For N70D, the “ddG of mutation (higher = less stable)” value amounted to 1.6 kcal/mol.
Same read-out and setting: in the case of N70A it was 1.6 kcal/mol.

Staying with this data set, now noted: Aspergillus oryzae (strain ATCC 42149 / RIB 40); pH 7; Thermal; CD; MOPS 30 mM; reversible: yes (>95%); structure 1RN1; whole UniProt chain shown.
As to N70S, the Tm turned out to be 45.8 °C; the “change of melting temperature, mutant” value is -5 °C; the “unfolding enthalpy (van 't Hoff)” value was determined as 89.6 kcal/mol.
Consider N70D, for which the Tm came out at 45.3 °C; the “change of melting temperature, mutant” value was -5.5 °C; the “unfolding enthalpy (van 't Hoff)” value came to 84.2 kcal/mol.
Taken in the same sequence, the figures for N70A were 45.6 °C, -5.2 °C and 86.8 kcal/mol.

Staying with this data set, now noted: Aspergillus oryzae (strain ATCC 42149 / RIB 40); pH 7; Thermal; CD; MOPS 30 mM; transition: 2; reversible: Yes; structure 1RN1; whole UniProt chain shown.
For N70S, the Tm stood at 45.8 °C; the “change of melting temperature, mutant” value was -5 °C; the “unfolding enthalpy (van 't Hoff)” value was determined as 89.6 kcal/mol.
Taken in the same sequence, the figures for N70A were 45.6 °C, -5.2 °C and 86.8 kcal/mol.

Staying with this data set, now noted: Aspergillus oryzae (strain ATCC 42149 / RIB 40); pH 2.7; 25 °C; Urea; CD; glycine 30 mM; reversible: yes (>95%); structure 1RN1; whole UniProt chain shown.
With N70D, the “ddG of mutation (higher = less stable)” value came to 0.5 kcal/mol, the denaturant m value worked out at 1.66 kcal/mol/M, the “denaturant midpoint” value turned out to be 3.45 M and the unfolding free energy amounted to 5.71 kcal/mol.

Still in this data set, the particulars now being: Aspergillus oryzae (strain ATCC 42149 / RIB 40); pH 2.7; 25 °C; Urea; Fluorescence; glycine 30 mM; transition: 2; reversible: Yes; structure 1RN1; whole UniProt chain shown.
Regarding N70D, the denaturant m value came to 1.66 kcal/mol/M, the “denaturant midpoint” value was 3.45 M and the unfolding free energy stood at 5.71 kcal/mol.

As usually defined, the Tm is the temperature at which the thermal transition is half complete.
